Test results published in paper PMC4335062, “Data-Driven Prediction and Design of bZIP Coiled-Coil Interactions” (PLoS Computational Biology, 2015).
Where no end group is shown, it is not given here.

Legend:
[1] = biological target: T1, XBP1 (Homo sapiens, UniProt P17861); settings: native human bZIP binding XBP1; cited from earlier work
T1 construct: made in house
T1 sequence (P17861 70-133 limits assumed): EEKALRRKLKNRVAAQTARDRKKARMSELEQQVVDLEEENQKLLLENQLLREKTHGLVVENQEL
Excerpt: We chose five human bZIP proteins as targets: X-box binding protein 1 (XBP1), JUN, Activating Transcription Factor (ATF) 3, ATF4 and ATF5. These are proteins for which an interaction partner was designed in prior work, but either the affinity or the specificity of the design left room for improvement. […] For example, XBP1-d1 was composed of heptads from N. vectensis, C. elegans and C. intestinalis proteins, and from previously designed bZIP binders. We also note that our four designs were composed of 24 distinct, non-recurring heptads. Thus, our design al ... || We compared the new designs to designed peptides targeting XBP1 and JUN reported by Grigoryan et al. for which FRET measurements were available. […] It should be noted that XBP1 presents a challenging target because three of its core a positions are occupied by asparagines. A matching asparagi ...

[2] = biological target: partner bZIP coiled coil (Protein2); settings: Protein2 = CI12 (CI), inter; 5000 assigned if Kd >5,000 nM or no binding; cited from earlier work
Procedure: Supplement pcbi.1004046.s020.csv, table | column: Kd || Fig 4 Designed bZIP-binding peptides inhibit interactions of native bZIP dimers. […] The dissociation constants at the indicated temperatures are Kd ≤ 1 nM for FOS-JUN, Kd ≤1 nM for XBP1-CREBZF, and Kd = 60 nM for ATF4-FOS, according to [18]. Fluorescence intensities were measured at both 37°C and 23°C, a ...

[3] = biological target: the molecule itself; test: FRET or BRET; homodimer Kd of the designed peptide determined by FRET, 23°C; dimer to monomers
[4] = biological target: T2, Activating Transcription Factor 4 (ATF4) bZIP construct, C-terminally fluoresceinated (human, UniProt P18848 278-351, fluorescein at the C-terminus); test: FRET or BRET; direct-binding FRET at 37°C; 10 nM fluorescein-labelled bZIP (donor), rhodamine-labelled design (acceptor) titrated 0 to 1 μM; 150 mM KCl, 50 mM potassium phosphate pH 7.4, 0.1% Tween-20, 0.1% BSA; settings: both partners purified
T2 construct: source: previously described, donated by A.W. Reinke [18]
T2 sequence (looked up): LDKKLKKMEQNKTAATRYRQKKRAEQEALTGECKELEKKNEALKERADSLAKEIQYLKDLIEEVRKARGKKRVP

[5] = biological target: T3, JUN bZIP construct, C-terminally fluoresceinated (human, UniProt P05412 252-315, fluorescein at the C-terminus); test: as above; settings: both partners purified
T3 construct: source: previously described, donated by A.W. Reinke [18]
T3 sequence (P05412 252-315): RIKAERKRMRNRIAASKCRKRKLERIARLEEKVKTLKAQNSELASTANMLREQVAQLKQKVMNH

[6] = biological target: T4, ATF4 (Homo sapiens, UniProt P18848); settings: native human bZIP binding ATF4; cited from earlier work
T4 construct: made in house
T4 sequence (P18848 278-341 limits assumed): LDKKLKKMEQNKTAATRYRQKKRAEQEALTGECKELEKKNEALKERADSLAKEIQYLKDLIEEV
Excerpt: For example, XBP1-d1 was composed of heptads from N. vectensis, C. elegans and C. intestinalis proteins, and from previously designed bZIP binders. We also note that our four designs were composed of 24 distinct, non-recurring heptads. Thus, our design al ...

[7] = biological target: JUN (Homo sapiens, UniProt P05412); parameters: made in house; settings: native human bZIP binding JUN; cited from earlier work
Chain of JUN (P05412 252-315 limits assumed): as the sequence (P05412 252-315) above
Excerpt: For most bZIP pairs, binding of the N-terminally labeled designed peptide to a C-terminally labeled target gave very little signal, and such curves could rarely be fit to provide Kd values (S9–S12 Tables). In a few cases where interactions could be quantified with both N- and C-terminal dye labeling, we observed that the affinity of N-terminally labeled designs for C-terminally labeled targets was somewhat weaker than the affinity of C-terminally labeled designs (S5–S12 Tables). Enhanced affinities attributable to dye interactions have been reported previously. […] For example, XBP1-d1 was composed of heptads from N. vectensis, C. elegans and C. intestinalis proteins, and from previously designed bZIP binders. We also note that our four designs were composed of 24 distinct, non-recurring heptads. Thus, our design al ... || We compared the new designs to designed peptides targeting XBP1 and JUN reported by Grigoryan et al. for which FRET measurements were available. […] It should be noted that XBP1 presents a challenging target because three of its core a positions are occupied by asparagines. A matching asparagi ...

## ATF6: native human bZIP coiled coil
[1]
  Kd: 1 nM
[2]
  Kd: 5000 nM

B1: ATF4-d1, rhodamine-labelled at the C-terminus (designed binder)
chain: GESKEYKKGSGSNQIKTLRTRLSKLRKDNLQLEKDIANLERKAKDLRAEKEQLEYELGC(Rhodamine Red C2‑maleimide)
notes: solubility linker after the His tag; added at the C-terminus for labelling; also used for the homodimer row; source: E. coli RP3098, purified (Ni-NTA under denaturing conditions, reverse-phase HPLC)
[3]
  Kd: 36.3 nM
[4]
  Kd: 9.3 ± 2.3 nM

B2: JUN-d1, rhodamine-labelled at the C-terminus (designed binder)
chain: GESKEYKKGSGSSIAATLEKEEANLEKMNKKLAAEIESLLKEKDKLESVLNYHEGC(Rhodamine Red C2‑maleimide)
notes: solubility linker after the His tag; added at the C-terminus for labelling; source: E. coli RP3098, purified (Ni-NTA under denaturing conditions, reverse-phase HPLC)
[5]
  Kd: 5.8 ± 0.7 nM

B3: ATF6B: native human bZIP coiled coil (protein)
chain: MAELMLLSEIADPTRFFTDNLLSPEDWGLQNSTLYSGLDEVAEEQTQLFRCPEQDVPFDGSSLDVGMDVSPSEPPWELLPIFPDLQVKSEPSSPCSSSSLSSESSRLSTEPSSEALGVGEVLHVKTESLAPPLCLLGDDPTSSFETVQINVIPTSDDSSDVQTKIEPVSPCSSVNSEASLLSADSSSQAFIGEEVLEVKTESLSPSGCLLWDVPAPSLGAVQISMGPSLDGSSGKALPTRKPPLQPKPVVLTTVPMPSRAVPPSTTVLLQSLVQPPPVSPVVLIQGAIRVQPEGPAPSLPRPERKSIVPAPMPGNSCPPEVDAKLLKRQQRMIKNRESACQSRRKKKEYLQGLEARLQAVLADNQQLRRENAALRRRLEALLAENSELKLGSGNRKVVCIMVFLLFIAFNFGPVSISEPPSAPISPRMNKGEPQPRRHLLGFSEQEPVQGVEPLQGSSQGPKEPQPSPTDQPSFSNLTAFPGGAKELLLRDLDQLFLSSDCRHFNRTESLRLADELSGWVQRHQRGRRKIPQRAQERQKSQPRKKSPPVKAVPIQPPGPPERDSVGQLQLYRHPDRSQPAFLDAIDRREDTFYVVSFRRDHLLLPAISHNKTSRPKMSLVMPAMAPNETLSGRGAPGDYEEMMQIECEVMDTRVIHIKTSTVPPSLRKQPSPTPGNATGGPLPVSAASQAHQASHQPLYLNHP
modifications: fluorescein at the C-terminus (FRET donor) or TAMRA (FRET acceptor), by assay
notes: native human bZIP coiled coil
[6]
  Kd: ≥ 5000 nM

B4: FOS: native human bZIP coiled coil (protein)
chain: EEKRRIRRERNKMAAAKCRNRRRELTDTLQAETDQLEDEKSALQTEIANLLKEKEKLEFILAAH
modifications: C-terminal TAMRA when used as FRET acceptor
[7]
  Kd: 1 nM
